Test results: patent US20190153097A1

Target: Cynomolgus/Rhesus CTLA-4 (cynomolgus/rhesus)
Experiment: ELISA with Cynomolgus/Rhesus CTLA-4 titrated (said to be similar to the mouse CTLA-4 ELISA with coated antibodies)

ipilimumab (human anti-huCTLA-4 marketed as Yervoy) (antibody)
EC50 (read off the curve): 200 pM
